The nature of data set [1]: Michaelis-Menten kinetics (glucose release). Format: biochemical. As to conditions: cellobiose. From the text: (§1) When using aryl-substrates, the standard assay method was employed, simply replacing pNPGlc by another substrate as appropriate. For oligosaccharides, the release of glucose was quantified using an enzyme kit (D-Fructose/D-Glucose Assay Kit, liquid stable, Megazyme).

Data set [2] is described as follows: Subcellular fractionation and enzyme localization, activity assayed with pNPGlc. Format: biochemical, Y. lipolytica. On the procedure:
Fractionation of yeast cells was carried out as described by Cummings and Fowler (1996), with slight modifications. Briefly, yeasts were cultivated until a cellular density of 6×10^7 cells/mL was reached. Then, to quantify total β-glucosidase activity, a 50 mL sample was taken and subjected to centrifugation at 8,000×g for 5 min at 4° C. thus isolating a cell pellet and supernatant. The cell pellet was disrupted in Tris-HCl buffer (50 mM, pH 7.4, 3 mM EDTA and 0.5 mM PMSF) using a MP FastPrep-24 Instrument (MP Biomedicals Inc.). β-Glucosidase activity in both the cell lysate and the supernatant was determined as described earlier in order to estimate total β-glucosidase activity. Using a second 50 mL yeast culture, a cell pellet containing approximately 2×10^8 cells/mL was obtained by centrifugation and then treated with zymolyase 100T at 10 mg/mL (Seikagaku corp roger) in 15 mL of sorbitol buffer (1 M sorbitol, 50 mM Tris-HCl, pH 7.4, 2 mM dithiothreitol, 10 mM MgCl2, 20 mM-sodium azide, 0.5 mM PMSF) at 30° C. with gentle shaking. Protoplast formation was monitored using a microscope until ≧99% of the cells was lysed when. SDS was added (1% SDS w/v). The solid protoplast fraction was then separated from the supernatant by centrifugation (1000 rpm for 5 min at 4° C.) and the latter was designated as the periplasmic fraction. The protoplasts were re-suspended in Tris-HCl buffer (50 mM Tris-HCl, pH 7.4) and disrupted by vortex in the presence of glass beads (0.4-0.45 mm). The homogenate was centrifuged (20,000×g for 2 h at 4° C.) and the supernatant and solid fractions were designated as the cytoplasmic and membrane fraction respectively. Prior to enzyme assays, the membrane fraction was suspended in citrate buffer.
Activity was assayed with pNPGlc.

A short description of data set [3]: β-Glucosidase activity, release of pNP from pNPGlc. Format: biochemical. On the procedure: β-Glucosidase activity was measured by quantifying the release of pNP (p-nitroplienol) from pNPGlc as described previously (Guo et al., 2011). One unit of pNPGlcase activity was defined as the amount of enzyme required to release 1 μmol pNP per min. Cellobiose phosphorylase activity was assayed by measuring the formation of Glc-1P from cellobiose as described previously (Reichenbecher et al., 1997). One unit of activity (U) was defined as the amount of enzyme required to release 1 μmol Glc-1P per min. All protein concentrations were measured using the Bradford method and bovine serum albumin as a standard (Bradford, 1976).

Data set [4] in a line: Specific activity on cellobiose. Format: biochemical.
From the text: as §1

Substrate in data set [5]: OC[C@H]1O[C@@H](O[C@H]2[C@H](O)[C@@H](O)[C@H](O[C@H]3[C@H](O)[C@@H](O)[C@H](O[C@H]4[C@H](O)[C@@H](O)C(O)O[C@@H]4CO)O[C@@H]3CO)O[C@@H]2CO)[C@H](O)[C@@H](O)[C@@H]1O
The data set is described as follows: purified protein, by the assay type. The conditions noted are these: other: apparent; 0.13 nM Bgl2; released glucose; mean of three experiments, SD below 10%.

Substrate in data set [6]: OC[C@H]1O[C@@H](O[C@H]2[C@H](O)[C@@H](O)[C@H](O[C@H]3[C@H](O)[C@@H](O)[C@H](O[C@H]4[C@H](O)[C@@H](O)[C@H](O[C@H]5[C@H](O)[C@@H](O)[C@H](O[C@H]6[C@H](O)[C@@H](O)C(O)O[C@@H]6CO)O[C@@H]5CO)O[C@@H]4CO)O[C@@H]3CO)O[C@@H]2CO)[C@H](O)[C@@H](O)[C@@H]1O
The data set is described as follows: purified protein, by the assay type. As to conditions: other: apparent; 0.13 nM Bgl2; released glucose; mean of three experiments, SD below 10%.

Substrate in data set [7]: OC[C@H]1O[C@@H](O[C@H]2C(O)O[C@H](CO)[C@@H](O)[C@@H]2O)[C@H](O)[C@@H](O)[C@@H]1O
The data set is described as follows: purified protein, by the assay type. The conditions noted are these: other: apparent; 0.13 nM Bgl2; released glucose; mean of three experiments, SD below 10%.

Substrate in data set [8]: OC[C@H]1O[C@@H](O[C@H]2[C@H](O)[C@@H](CO)OC(O)[C@@H]2O)[C@H](O)[C@@H](O)[C@@H]1O
The data set is described as follows: purified protein, by the assay type. The conditions noted are these: other: apparent; 0.13 nM Bgl2; released glucose; mean of three experiments, SD below 10%.

Substrate in data set [9]: OC[C@H]1O[C@@H](O[C@H]2[C@H](O)[C@@H](O)[C@H](O[C@H]3[C@H](O)[C@@H](O)C(O)O[C@@H]3CO)O[C@@H]2CO)[C@H](O)[C@@H](O)[C@@H]1O
The data set is described as follows: purified protein, by the assay type. The conditions noted are these: other: apparent; 0.13 nM Bgl2; released glucose; mean of three experiments, SD below 10%.

Substrate in data set [10]: OC[C@H]1O[C@@H](OC[C@H]2OC(O)[C@H](O)[C@@H](O)[C@@H]2O)[C@H](O)[C@@H](O)[C@@H]1O
The data set is described as follows: purified protein, by the assay type. The conditions noted are these: other: apparent; 0.13 nM Bgl2; released glucose; mean of three experiments, SD below 10%.

Substrate in data set [11]: CCCCCCCCO[C@@H]1O[C@H](CO)[C@@H](O)[C@H](O)[C@H]1O
The data set is described as follows: Enzyme kinetics on glycoside substrates, released glucose, Michaelis-Menten (Bgl2). Format: biochemical, Yarrowia lipolytica. As to conditions: other: apparent, 0.13 nM Bgl2, mean of three experiments, SD below 10%.

Substrate in data set [12]: OC[C@H]1O[C@@H](O[C@H]2[C@H](O)[C@@H](O)C(O)O[C@@H]2CO)[C@H](O)[C@@H](O)[C@@H]1O
The data set is described as above. Format: biochemical, Yarrowia lipolytica. As to conditions: other: apparent, 0.13 nM Bgl2, mean of three experiments, SD below 10%.

Substrate in data set [13]: OC[C@H]1O[C@@H](O[C@H]2[C@H](O)[C@@H](O)[C@H](O[C@H]3[C@H](O)[C@@H](O)[C@H](O[C@H]4[C@H](O)[C@@H](O)[C@H](O[C@H]5[C@H](O)[C@@H](O)C(O)O[C@@H]5CO)O[C@@H]4CO)O[C@@H]3CO)O[C@@H]2CO)[C@H](O)[C@@H](O)[C@@H]1O
The description is as above. Format: biochemical, Yarrowia lipolytica. As to conditions: other: apparent, 0.13 nM Bgl2, mean of three experiments, SD below 10%.

This note sets out measurements from patent US20180044653A1, “Mutant Yeast Strain Capable of Degrading Cellobiose” (Institut National de la Recherche Agronomique, priority 2015, published 2018).

B1: Bgl1: β-glucosidase of Y. lipolytica encoded by BGL1 (YALI0F16027g), SEQ ID NO: 4, mainly periplasmic (protein, listed as Yarrowia lipolytica)
chain: MIFSLQLLLTTALAASSPDWYPTPEIGSITSDWADALGESMDILAQLTLPEKVNITTGTGWRGGQCVGNTGAVPRLGIKGLCLQDGPLGVRFADFVNVFPCQNAMAATFDRILVHQRGTAIGRQSRLKGVDVHLGPVVGPLGRHATGGRNWEGFSPDPYLSGKLAFEAILGVQEEGVLATIKHFIGNEQEHYRRAEEWRDGFGFKDLKDAVSSNIEDRALHELYMWPFADAVRANVGSVMCSYNYVNGTQACQNSDLLNGKLKSELGFQGFVMSDWFAQGSGVSNALAGMDMSMPGNDVDELETVFWGEQLTRMVANGTLPEARLDDMVLRILTPLIYFGIDDRTPNFSSFVDTTVGSPHPAAKHSKKVKDVITNYHLDVRDQFAANVALDSARGAVVLLFNDGILPLKNISAIGVFGVGSRLGPNGAVCGENMQCSDGALIEGWGSGTAYPTEYESPYEALHKKASLLEVSVTGTTESWDMRLPLELAGDTDVNIVYVLANSGESTANVDKNLGDRRNVSLWHNGDELINTVASQGQTVVVVTTVGQVDMTAWLNHPNISAVLLTAPAGDYGGKAIADVLFGEVNPSGKLPYTIAANTSDYIPIVTKIPRDGAPQSDFVEGIYLDYKWYDKFERTPLYEFGYGLSYTTYSFSNLHLDVKEISEFLPPRPVPVQVTKPKMTNIDIEDLYVPNDFKMIDGLVYPWILNASAPLADSQTQFPFANGAGHVSDASGGVGGHPWLWSNAVTVTHNTTNCGDVAGRVVSQLYVAFPETLIDSPPVQLRGFDKSKLLNPGESQMTEYNLNWRDLAIWDVELQSWRVQRGEYSVYIGHSSREFELCETFTL
Regarding B1, the “KM fold lower than those of β-glucosidases from S. fibuligera and A. niger” value in data set [1] is given as “approximately 10 fold”. Besides, the “Relative enzyme activity, Cytoplasm” value in data set [2] (fraction: Cytoplasm) is 30.0 ± 0.5%. Moreover, in [2] (fraction: Growth medium), the “Relative enzyme activity, Growth medium” value was found to be 2.3 ± 0.4%. Moreover, in data set [2] (fraction: Membrane), the “Relative enzyme activity, Membrane” value is 8.1 ± 0.7%. In data set [2] (fraction: Periplasm), the “Relative enzyme activity, Periplasm” value is given as 60.7 ± 1.0%. Also, the “Relative enzyme activity, Total” value in data set [2] (fraction: Total) is reported as 100%. For the same molecule, the “fold more active on pNPGlc than Bgl2” value in data set [3] came out at 5 fold. Moreover, the “activity on pNPGlc of purified enzyme” value in data set [3] (preliminary characterization, pNPGlc as substrate) is reported as 102.8 U/mg. Besides, in [4], the “specific activity on cellobiose” value came to 108 units/mg protein.

B2: Yarrowia lipolytica β-glucosidase Bgl2 (YALI_BGL2, YALI0B14289g, SEQ ID NO: 6; mature SEQ ID NO: 2), native (Yarrowia lipolytica CLIB122) (protein)
chain: DPFSDKDAYKHSPPYYPAPEIGRVPTDLRWRAALKVAQGMVANMTLLEKVNITTGTGWEMGPCVGNTGTVERLGIKSLCLQDGPLGIRFADLITTFPAGITIASTFSRQLVRERGAAMGRENRRKGVDITLSPVVGPLGRHANGGRIWEGFSADPYLAGKLAAEAVTGIQGQNVMAVVKHMVGNEQEHFRQLGEWQGFGFKDLKQPLSSNIDDRTLNEAYLWPFADAVRANVGSVMCSYQQINGSQGCQNAHILNGKLKEEMGFQGFVMSDWLAQRSGVASVLAGLDMSMPGDGLVWADGVPLMGYELTRSVLNGTIDESRVDDMVTRILTPILYLSITPTDPNFSSWTNDTTSYKYYGAKAGGNVTVNRHIDVRDQYTTKAALDGANAALVLLKNEKKTLPLNPTNIGNLNIFGIGSKTGPLGAVCGENMQCSDGALIEGWGSGSVYPTDYQSPYDAIKERASKDNITIGGTTQSWGNLSNVEILSAAADASVVFVLSDSGESTGIVDGNIGDRNNLTLWHNGDEVVKAVASKNPNTIVVVTTVGPVNLEKWIDNPNVTAVLLTGPAGDFGGRAAASILFGDIAPSGKLPFTIAKNDTDYIPLTTKIPEDGLPQDYFTEGTLLDYKRFDENQVTPRFEFGYGLSYSNITVENLEARYAFPSIPEFLPTPFAPSNPNKPKNAFTPHANESVFPSDIDPLNKYVYPYLNDTSEIFSNETHYPYPEGYSSEQSNSTNINGGAVGGNPALWLSAVYIVHSVSNYGPYDTGVVTQMYIAFPQDNDDLKTAPRQLRGFERSELKVGERQGILYDVQWRDLAVWDVKLQSWRVQRGEYKVYVGHSSRDFVLTTSFTLK
On to B2, for which the Km (as a rule, the concentration of substrate that gives half-maximal velocity) came to 1860 µM in [5]; 2370 µM in data set [6]; 2400 µM in data set [7]; 890 µM in [8]; 990 µM in data set [9]; 1840 µM in [10]. Moreover, the figures for the Km in data set [11], in data set [12] and in data set [13] were 1300 µM, 790 µM and 2240 µM, respectively. The kcat (in general, the maximal rate divided by the concentration of active sites) in data set [5] came to 20.6 s⁻¹; in [6] it was 30.5 s⁻¹; in data set [7], 41.2 s⁻¹; in [8] it was 211.1 s⁻¹; in data set [9], 9.5 s⁻¹; in [10], 186.5 s⁻¹. The kcat in data set [11] stood at 111.1 s⁻¹; in data set [12] it was 5.1 s⁻¹; in data set [13], 27.5 s⁻¹. Further, the kcat/Km – broadly, the turnover number divided by the Michaelis constant – in [5] came out at 11000 M⁻¹ s⁻¹; in data set [6] it was 12900 M⁻¹ s⁻¹; in [7], 17200 M⁻¹ s⁻¹; in data set [8], 237000 M⁻¹ s⁻¹; in data set [9], 9600 M⁻¹ s⁻¹; in data set [10], 101000 M⁻¹ s⁻¹. Besides, the kcat/Km in data set [11] came out at 85200 M⁻¹ s⁻¹; in data set [12] it was 6500 M⁻¹ s⁻¹; in [13] it was 12300 M⁻¹ s⁻¹.
